Measurements: PMC4856307, “A Hidden Transhydrogen Activity of a FMN-Bound Diaphorase under Anaerobic Conditions” (PLoS ONE, 2016)

How the values were obtained:
Experiment in all cases: purified protein
Type in all cases: biochemical, Geobacillus stearothermophilus
purified protein [1] = substrate: NC(=O)C1=CN([C@@H]2O[C@H](COP(=O)(O)OP(=O)(O)OC[C@H]3O[C@@H](n4cnc5c(N)ncnc54)[C@H](OP(=O)(O)O)[C@@H]3O)[C@@H](O)[C@H]2O)C=CC1; settings: acceptor thio-NAD+; anaerobic (argon); 1x TBS pH 7.4, room temperature; pH 7.4
purified protein [2] = substrate: NC(=S)c1ccc[n+]([C@@H]2O[C@H](COP(=O)([O-])OP(=O)(O)OC[C@H]3O[C@@H](n4cnc5c(N)ncnc54)[C@H](O)[C@@H]3O)[C@@H](O)[C@H]2O)c1; settings: hydride donor NAD(P)H; anaerobic (argon)
purified protein [3] = substrate: NC(=S)c1ccc[n+]([C@@H]2O[C@H](COP(=O)(O)OP(=O)(O)OC[C@H]3O[C@@H](n4cnc5c(N)ncnc54)[C@H](OP(=O)(O)O)[C@@H]3O)[C@@H](O)[C@H]2O)c1; settings: hydride donor NAD(P)H; anaerobic (argon)
purified protein [4] = substrate: NC(=O)C1=CN([C@@H]2O[C@H](COP(=O)(O)OP(=O)(O)OC[C@H]3O[C@@H](n4cnc5c(N)ncnc54)[C@H](O)[C@@H]3O)[C@@H](O)[C@H]2O)C=CC1; settings: acceptor thio-NAD+; anaerobic (argon); 1x TBS pH 7.4, room temperature; pH 7.4

B1: FMN-bound diaphorase (FMN-DI, DI, GsDI) (Geobacillus stearothermophilus) (protein)
chain: MTKVLYITAHPHDDTQSYSMAVGKAFIETYKQVHPDHEVIHLDLYKEYIPEIDVDVFSGWGKLRSGKSFEELSDEEKAKVGRMNELCEQFISADKYVFVTPMWNFSFPPVLKAYIDAVAVAGKTFKYTEQGPVGLLTDKKALHIQARGGFYSEGPAAEMEMGHRYLSVIMQFFGVPSFEGLFVEGHAAMPEKAEEIKANAIARAKDLAHTF
notes: full length from 636-bp DNA fragment, E. coli BL21 Star (DE3), plasmid pET20b-Gsdi, Ni-resin purified (C-terminal His tag implied by reverse primer)
- Km (purified protein [1]): 699 ± 49 µM
- kcat (purified protein [1]): 1.93 ± 0.06 s⁻¹
- Km (purified protein [2]): 917 µM
- kcat (purified protein [2]): ~2.4 s⁻¹
- Km (purified protein [3]): 4.813 mM
- kcat (purified protein [3]): ~0.26 s⁻¹
- Km (purified protein [4]): 24 ± 3 µM
- kcat (purified protein [4]): 1.64 ± 0.05 s⁻¹
